Measured values: patent US20210054388

Test system: Zif268::FokI zinc finger nuclease (synthetic)
Assay: cell_activity
Details: N. tabacum leaf, pLSLZ.D + p35SREP, 7 dpi; 6 of 8 sequenced resistant clones mutated

Zif268 target site in gus::nptII reporter
activity (% of reporter genes with NHEJ mutations): 10
